# Tested on: human umbilical vein endothelial cells (HUVEC)
# Assay: Uptake of fluorophore-labeled cow's milk exosomes into HUVECs
# Type: cell-based
# Conditions: exosomal surface proteins removed by proteinase K
molecule,measurement,value
"proteinase K: non-specific protease used to remove surface proteins of exosomes or cells (protein, UniProt P06873 106-384, looked up) Proteinase K: AAQTNAPWGLARISSTSPGTSTYYYDESAGQGSCVYVIDTGIEASHPEFEGRAQMVKTYYYSSRDGNGHGTHCAGTVGSRTYGVAKKTQLFGVKVLDDNGSGQYSTIIAGMDFVASDKNNRNCPKGVVASLSLGGGYSSSVNSAAARLQSSGVMVAVAAGNNNADARNYSPASEPSVCTVGASDRYDRRSSFSNYGSVLDIFGPGTSILSTWIGGSTRSISGTSMATPHVAGLAAYLMTLGKTTAASACRYIADTANKGDLSNIPFGTVNLLAYNNYQA",exosome uptake,~50 % of controls
